Reference: patent publication US20250215092A1 (ZHEJIANG NANOMAB TECHNOLOGY CENTER, published 2025)

B1: E007 VHH-IgG4 antibody (antibody, V domains shown, not shown: a dimerising Fc or GST)
VH: EVQLVESGGGLVQPGGSLRLSCEASGFSFSDHTMRWHRQAAGKNLELVAYITPAGDIIKYADSVQGRFTISRDNAKNMLYLQMDSLRPDDTAVYRCNALVSAAVRASDYWGQGTQVTVSS
B2: E008 VHH-IgG4 antibody (antibody, V domains shown)
VH: EVQVVESGGGLVQSGGSLTLSCTSSGLPLLDYAIGWFRQAPGKEREAVSAISISEGSTYYTDSVRGRFTISRDNNKNKVYLRMDNLKPEDTAVYYCAADKTDIGFWLLVGGAGGGEVRYEYWGQGTQVTVSS
notes: VHH fused to IgG4 (VHH-IgG4), expressed in ExpiCHO, protein A purified; not shown: human IgG4 constant part from the pCDNA3.4-IgG4 vector

What was measured:
[1] = target: T1, human EGFR.His antigen (Acro, Cat #EGR-H522a) (human, UniProt P00533 25-645); assay: competition ELISA: EGFR his tag protein coated, antibody titrated together with Human EGF-mouse IgG2a Fc, bound EGF detected with HRP anti-mouse IgG, unit taken from the concentration axis (paragraph 62 says nM); OD450 falls only from about 2.4 to about 2.0-2.2 [table]
T1 construct: extracellular domain; Bought protein; also called EGFR his tag protein; full-length EGFR extracellular domain protein; not shown: His tag
Protocol: (§1) Briefly, EGFR his tag protein was diluted with PBS to 2 μg/mL, and 100 μL of the antigen was added to each well of an ELISA plate and coated overnight at 4° C. The next day, the plates were washed twice with PBST (containing 0.5% TWEEN-20), and then blocked with 3% BSA at 37° C. for 1.5 h, followed by two washes with PBST. […] VHH-IgG4 antibodies were diluted to 2000 nM and then serially diluted 4-fold for 8 gradients. […] After washing 3 times, HRP goat anti-mouse IgG (Goat anti-Mouse IgG) (H+L) antibody (Abcam, cat #ab205719) diluted at 1:3000 was added to each well, and the plate was incubated at 37° C. for 40 min. The plates were then washed 3 times with PBST, and 100 μL of TMB substrate was added to each well and allowed to react for 3-5 min. The reaction was stopped by adding 100 μL of 3N hydrochloric acid per well. After stopping the reaction, the optical density at 450/650 nm was measured using a Tecan microplate reader. The dose-response curve was plotted, and the IC50 was calculated using GraphPad Prism 8.0 software.

[2] = target: T1, human EGFR.His antigen (Acro, Cat …); assay: competition ELISA: EGFR his tag protein coated, antibody titrated together with Human EGF-mouse IgG2a Fc, bound EGF detected with HRP anti-mouse IgG, unit taken from the concentration axis (paragraph 62 says nM); OD450 falls from about 2.4 to a plateau of about 0.4 [table]
Protocol: as §1

| Binder | IC50 [1] | IC50 [2] |
| --- | --- | --- |
| B1 | 0.152 µg/mL |  |
| B2 |  | 0.056 µg/mL |
